According to patent US20050215629:

T1: synthetic phosphotyrosine peptide Arg-Arg-Leu-Ile-Glu-Asp-Ala-Glu-Tyr-Ala-Ala-Arg-Gly, wherein the tyrosine is phosphorylated
T1 chain: RRLIEDAEYAARG


Target: T1, synthetic phosphotyrosine peptide …

Row | Protein | immunocomplex PTPase assay (anti-Flag immunocomplexes from NIH3T3 transfectants) | immunocomplex PTPase assay (anti-Flag immunocomplexes from WM9 transfectants) | in vitro PTPase assay
1 | Flag-tagged PRL-1 (protein) MARMNRPAPVEVTYKNMRFLITHNPTNATLNKFIEELKKYGVTTIVRVCEATYDTTLVEKEGIHVLDWPFDDGAPPSNQIVDDWLSLVKIKFREEPGCCIAVHCVAGLGRAPVLVALALIEGGMKYEDAVQFIRQKRRGAFNSKQLLYLEKYRPKMRLRFKDSNGHRNNCCIQ | a markedly higher PTPase activity (about 23 folds) over that of control transfectants | showed phosphatase activities well above the background activity of the vector control cells | –
2 | GST fusion protein of human PRL-1 (protein) MARMNRPAPVEVTYKNMRFLITHNPTNATLNKFIEELKKYGVTTIVRVCEATYDTTLVEKEGIHVLDWPFDDGAPPSNQIVDDWLSLVKIKFREEPGCCIAVHCVAGLGRAPVLVALALIEGGMKYEDAVQFIRQKRRGAFNSKQLLYLEKYRPKMRLRFKDSNGHRNNCCIQ | – | – | PTPase activity of recombinant PRL-1, PRL-2 and PRL-3 in dephosphorylating a synthetic phosphotyrosine peptide substrate
3 | GST fusion protein of PRL-1R86 (protein) MARMNRPAPVEVTYKNMRFLITHNPTNATLNKFIEELKKYGVTTIVRVCEATYDTTLVEKEGIHVLDWPFDDGAPPSNQIVDDWLRLVKIKFREEPGCCIAVHCVAGLGRAPVLVALALIEGGMKYEDAVQFIRQKRRGAFNSKQLLYLEKYRPKMRLRFKDSNGHRNNCCIQ | – | – | showed in vitro PTPase activity similar to that of wild type PRL-1
4 | Flag-tagged PRL-1R86 mutant (protein) MARMNRPAPVEVTYKNMRFLITHNPTNATLNKFIEELKKYGVTTIVRVCEATYDTTLVEKEGIHVLDWPFDDGAPPSNQIVDDWLRLVKIKFREEPGCCIAVHCVAGLGRAPVLVALALIEGGMKYEDAVQFIRQKRRGAFNSKQLLYLEKYRPKMRLRFKDSNGHRNNCCIQ | – | showed phosphatase activities well above the background activity of the vector control cells | –
5 | GST fusion protein of human PRL-2 (protein) MNRPAPVEISYENMRFLITHNPTNATLNKFTEELKKYGVTTLVRVCDATYDKAPVEKEGIHVLDWPFDDGAPPPNQIVDDWLNLLKTKFREEPGCCVAVHCVAGLGRAPVLVALALIECGMKYEDAVQFIRQKRRGAFNSKQLLYLEKYRPKMRLRFRDTNGHCCVQ | – | – | PTPase activity of recombinant PRL-1, PRL-2 and PRL-3 in dephosphorylating a synthetic phosphotyrosine peptide substrate
